Results published in the RNAGym collection of RNA variant scans (doi:10.7554/elife.90254).

B1: LINE1-full (parent)
chain: UACGUAGGUGGUUUUCCCCUGAUAGUGCUAAGGGGGCCUGGAAGUUUGGACUGGGCAGAGCUCAACACAGCGUGGCAAAGUGGCUGUGGCUAGACUGCCUCUCUGGAUUCCUCGUCACUCAGCAGGGCAUCUCUGAGAGAAAUGCC

Variants of: B1
Assay: self-cleavage, relative activity (ratio to wild type); higher = more cleavage; in vitro, sequencing; the parent is a self-cleaving ribozyme

Variant	self-cleavage
A6G U45C	0.5
G48U	0.94
U96C U130A	0.12
A2G A94U	0.29
U119C	1.59
G72A G88A	0.03
U45C U130A	1.66
A140C A141G	0.41
U47A A140U	1.25
C68A G88A	0.01
G88A U134C	0.08
U91C C110G	0.58
G89A U109G	0.04
A24C A64G	0.64
U20A A57U	0.11
U23A A117G	2.16
U62C A138U	0.01
U91C G97A	0.05
G58A U87C	0
G88A U100A	0.07
U26A A59U	0.65
A136G U143C	1.47
A30G A57U	0.27
A79G U108C	1.61

Variant	self-cleavage
G35A C76U	2.14
U52A A92G	0.11
C145U	1.32
A92G G97C	0.06
A117U G126U	1.11
U39A G53U	1.63
C38A U132C	1.02
G36A A59U	0.67
A30C A136U	1.19
U45A U62C	0.03
A2U A67C	0.12
U45C U73G	1.22
U14G A78G	1.23
C71U U96C	0.05
U13A A65U	0.09
G34C U62A	0.04
U102A U108C	1.14
A22G U143C	0.97
U73A G125A	1.92
A107G A140U	0.94
U20G A121G	1.27
C118A A129G	1.1
A65U U112C	0.26
U108C U134C	1.57

Variant	self-cleavage
A121U A140C	1.09
U132A G137A	1.7
U115A A124G	0.93
U9G U102C	1.26
U102C U112C	1.53
U102C U112G	1.15
U12C G36C	0.95
U29C C68U	0.4
U87C A142G	0.25
A57U U132C	0.14
U130A G137A	1.84
U81A U87C	0.19
A43U U45G	2.34
U81A A107G	1.84
U73A A79U	2.48
U73A G93U	0.03
G72C C90U	0.03
C18A A24G	1.11
C120U A141U	0.95
G125A A138G	1.01
G70U U102A	0.11
U14C U47A	1.17
U104A U112C	1.32
U134C A142G	1.42

Variant	self-cleavage
U96A C145A	0.06
U46C A65G	0.06
U45C A94G	0.3
C71A G122A	0.12
G72U U143C	1.02
U15C A67C	0.07
A2G A67G	0.41
U15C C17A	1.28
U15C G106A	1.26
G4A U23C	1.11
G80A A136U	2.49
U47A U100G	1.93
C110U A141G	1.4
C84A U130A	0.07
U47C A129U	1.74
U108C A124U	1.81
U46C U132G	1.91
U45C C63U	0.18
U46G A67G	0.32
G32A A124U	0
G88U U100C	0.04
U13A C28U	0.76
A6G U96C	0.41
U39A A124G	0.97

Variant	self-cleavage
A2U A30G	1.2
U26C G72A	0.93
G122C A140C	1.71
C37U A79C	1.22
A78G U81G	0.34
C113U A138U	1.21
A31C A79G	1.02
U52C A65G	0.07
U12G U109A	1.47
U15A U91A	0.77
A43U A117G	1.25
A22C A50G	1.86
A117C C128U	1.3
U109A U115A	1.47
G48A U109A	2.18
U73A C84U	0.16
A43G G48A	1.54
G48U G125A	1.17
C18U A129G	0.81
C66A A124U	0.04
G35A U100A	0.31
U14G A24G	0.79
A50U U87C	0.23
U29A U87C	0.22

Variant	self-cleavage
A22G G93A	0.03
U15C U132C	1.47
G7A U132C	1.2
G58A U143C	0
A30G U115C	1.12
U20C U47A	1.19
U12G U81G	0.68
A31U U73C	1.51
U12G C113A	1.84
U132C G135A	1.19
C123A A138G	1.82
G41A A141G	0.96
U9C G114A	1.42
G49A U115C	1.33
U5A	0.95
A65G A67U	0.03
C38U U39A	1.09
G41A U119C	1.15
U91C U104A	0.34
U73A C113U	1.41
U47A G106C	2.21
A77G A141U	1.89
G58U	0.05
G36A U45G	0.92

Variant	self-cleavage
G25A U104A	1.03
C3U G93A	0
G40A A78U	1.96
U15C U119A	1.5
G74C A140G	1.53
A2U A92U	0.32
U119C A141U	2.27
C84A A136U	0.19
C37U U91C	0.27
A69G A94U	0.13
U73A U109C	1.05
G105A U134C	1.44
U108C G137A	0.89
A67G U143C	0.57
U9A A92G	0.15
G54A U73C	0.67
U45C G70U	0.06
A78U U100A	1.13
C3U A6U	0.2
A59U A141G	0.96
U52A A121G	1.74
A64U U96C	0.04
G25U G49U	1.21
